Test results reported in paper PMC11452297.

Molecular target: C-terminal domain of FusB (residues 224-324) (Pectobacterium carotovorum)
Assay: ITC; 480 uM PM1 in the syringe titrated into 20 uM FusB in the cell; VP-ITC, 25 °C, 20 mM sodium phosphate pH 7.5, 150 mM NaCl

Substance: Pectocin M1 (natural protein)
- Kd: 8.1 µM
- dH: -6 kcal/mol
